Test results as given in patent US20190375786A1, “STABLE PEPTIDES AND METHODS OF USE THEREOF” (Fred Hutchinson Cancer Research Center, priority 2016, published 2019).

Assays:
Format in all cases: cell-based
[1] = molecular target: trypsin (Sus scrofa, UniProt P00761); assay: SDPR surface display protease resistance, anti-6xHis staining, trypsin; details: HEK-293 cells, up to 40 μg/ml trypsin for 20 minutes
Procedure: (§1) Soluble peptides were exposed to 500 U/mL porcine trypsin and analyzed by HPLC. Protease resistance was also assessed by using SDPR-displaying peptides. The SDPR vector is similar to the a surface display GFP FasL(SDGF) vector, but contains a C-terminal 6×His tag (SEQ ID NO: 180) and all basic or aromatic amino acid residues on the stalk removed. Protease resistance is then tested by incubation of cells displaying peptides with trypsin or chymotrypsin, followed by incubation in 10 mM DTT, and staining with an anti-6×His fluorophore-labeled antibody (“6×His” disclosed as SEQ ID NO: 180). If peptides are uncleaved, they retain the His tag and are stained with by the antibody. A control protease-sensitive knottin peptide (SK) was used as a positive control. Cells displaying peptides were treated with up to 40 μg/ml trypsin or chymotrypsin.
(§2) To determine the impact of protease treatment or reducing condition on the function of the peptides, i.e., binding activity, various binding or functional assays can be performed. […] After treatment with the protease and reducing agent, any linearized peptide product or degradation product resulting from reduction and/or proteolysis by treatment with a protease can be detected or analyzed by staining against the 6×His tag (SEQ ID NO: 180). […]

[2] = tested on: chymotrypsin; assay: SDPR surface display protease resistance, anti-6xHis staining, chymotrypsin; details: HEK-293 cells, up to 40 μg/ml chymotrypsin for 20 minutes
Procedure: as §1, §2

[3] = tested on: TEAD protein; assay: Binding of surface-displayed (SDGF) peptide to biotinylated target protein after reducing agent, flow cytometry; details: HEK-293 cells displaying peptide, 20 nM biotinylated target protein
Procedure: Designed or engineered peptides of this disclosure were also tested to evaluate if the peptides' binding activity to their target protein (e.g., TEAD protein) was affected by exposure to reducing conditions. HEK-293T suspension cells were transfected with a surface display GFP FasL(SDGF) vector comprising SEQ ID NO: 39 (SDGF-SEQ ID NO: 39) or SDGF vector comprising SEQ ID NO: 43 (SDGF-SEQ ID NO: 43) construct. Cultures were grown for two days, followed by incubation in 10 mM GSH or 10 mM DTT. Finally, cells were stained with biotinylated-target protein to evaluate the binding activity of a peptide to the target protein. FIG. 15 illustrates the stability of peptides of SEQ ID NO: 39 and SEQ ID NO: 43 after exposure to a reducing agent. Each peptide was expressed on a cell surface and tested for binding to a target protein after cells expressing SDGF-SEQ ID NO: 43 or SEQ ID NO: 39 were exposed to a reducing agent. FIG. 15A illustrates a flow cytometry plot showing binding of HEK-293 suspension cells transfected with SDGF-SEQ ID NO: 39 (GFP) incubated for 5 minutes in PBS, 10 mM DTT, or 10 mM reduced glutathione (GSH) before staining with 20 nM biotinylated target protein and 20 nM AF647-streptavidin. FIG. 15B illustrates a flow cytometry plot showing binding of HEK-293 suspension cells transfected with SDGF-SEQ ID NO: 43 (GFP) incubated for 5 minutes in PBS, 10 mM DTT, or 10 mM reduced glutathione (GSH) before staining with 20 nM biotinylated target protein and 20 nM AF647-streptavidin. FIG. 15C illustrates quantification of the AF647 mean fluorescence intensity (MFI) of cells falling within the “slice” gate shown in FIG. 15A and FIG. 15B. […] In other words, peptides of SEQ ID NO: 39 and SEQ ID NO: 43 were resistant to reduction by GSH.

Chain of trypsin (P00761 9-231): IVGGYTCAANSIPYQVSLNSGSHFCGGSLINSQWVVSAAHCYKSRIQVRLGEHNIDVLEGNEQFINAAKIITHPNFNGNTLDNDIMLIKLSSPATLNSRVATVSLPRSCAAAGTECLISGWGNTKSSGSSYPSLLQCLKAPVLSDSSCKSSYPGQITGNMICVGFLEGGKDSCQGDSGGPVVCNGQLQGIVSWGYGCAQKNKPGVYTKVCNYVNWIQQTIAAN

## GSPDEYIERAKECCKKQDIQCCLRIFDESKDPNVMLICLFCW [SEQ ID NO: 43]
[1]
  resistance of surface-displayed peptide to cleavage by trypsin: partially resistant
[2]
  resistance of surface-displayed peptide to cleavage by chymotrypsin: partially resistant
[3]; 5 minutes in 10 mM DTT
  binding to target protein after DTT treatment: no loss in binding
[3]; 5 minutes in 10 mM GSH
  binding to target protein after GSH treatment: no loss in binding
